From publication PMC8106883

Target: angiotensin-converting enzyme 2 (ACE2) on transfected HEK293T cells (human) (UniProt Q9BYF1)

Question: S1-hFc N282Q (Fc fusion) was tested. Which fold binding relative to WT S1-Fc did it give?
Answer: Its fold binding relative to WT S1-Fc is 3 fold.
